Experimental data taken from paper PMC5463187 (Nature microbiology, 2017).

Key:
[1] = molecular target: RSV strain A2 pre-fusion F, single-chain triple mutant (SC-TM) construct (respiratory syncytial virus subgroup A …); test: cell-based or functional assay
[2] = molecular target: T1, RSV strain A2 post-fusion F (Human respiratory syncytial virus …, UniProt P03420, strain); test: ELISA; conditions: both partners purified
T1 construct: source: HEK293, transfected, purified from culture supernatant (HiTrap Talon crude)

[3] = molecular target: T2, RSV strain 18537 post-fusion F (Human respiratory syncytial virus …, UniProt P13843, strain); test: ELISA; conditions: both partners purified
T2 construct: also called RSV B 18537 (post); source: HEK293, transfected, purified from culture supernatant (HiTrap Talon crude)

[4] = molecular target: RSV strain 18537 B pre-fusion F (Ds-Cav1) (Human respiratory syncytial virus …, UniProt P13843, stabilised); test: cell-based or functional assay

Binder	plaque-reduction neutralization of RSV A2 (IC50) [1]	binding result [2]	binding result [3]	plaque-reduction neutralization of RSV 18537 B (IC50) [4]
hRSV97 (antibody, V domains shown, also called mAb hRSV97) VH: EVQLVESGGTLVQPGRSLRLSCAASGFNFEEYAMHWVRQVPGKGLEWVARINWNGGIIGYADSVKGRFTISRDNAKKSLYLQMNSLRTDDSALYYCGKDVFWAVAGTGGPIDSWGQGTLVTVSS VL: DIVMTQSPSSLSASIGDRVTISCRASRDISNYLAWYQQKSGKVPKLLIYAASTLESGVPSRFSGSGSGTDFTLTISSLQPEDVATYYCQNYNSAQMCSFGQGPSLEIK	0.35 µg/mL	no binding (tested: 1 μg ml^−1)	no binding (tested: 1 μg ml^−1)	–
hRSV61 (antibody, V domains shown, also called mAb hRSV61) VH: QVQLVQSGAELKKPGASVKVSCKASGYTFTNHGITWVRQAPGQGLEWMSWISGYNGNTQYAQKFQGRVTMTTDTSTRTAYMELRSLTSDDTAVYYCARDNGVVVGPPDYWGQGTLVTVSS VL: DIQMTQSPSTLSASVGDRVTISCRASQSISSWLAWYQQKPGKPPKLLIYKASGLQTGVPSRFSGSGSGTEFTLTISSLQPDDFATYYCQYYHSLSAFGQGTKVEIK	0.09 µg/mL	no binding (tested: 1 μg ml^−1)	no binding (tested: 1 μg ml^−1)	–
hRSV20 (antibody, V domains shown, also called mAb hRSV20) VH: QVQLVESGGGLVQPGRSLRLSCAASGFTFDDYAMHWVRQAPGRGLEWVSGISWNSGIAVYADSVKGRFTISRDNAKKSLYLQINSLRAEDTALYYCVKDNYASGSYSSYYYYYGLDLWGQGTLVTVSS VL: EIVMTQSPATLSVSPGERATLSCRASQSIISNLAWYQQKPGQAPRLLIYGVSTRATGIPARFSGSGSDTEFTLSISSLQSEDFAVYYCQQYNNWPITFGQGTRLEIK	0.045 µg/mL	no binding (tested: 1 μg ml^−1)	no binding (tested: 1 μg ml^−1)	–
hRSV12 (antibody, V domains shown) VH: QVQLVQSGAEVKKPGTSVRVSCKTSGYNFMNYGIYWVRQAPGQGLEWVGWISAYNGQTDRAQKFQGRVTMTTDISTNTGYMDLRSLRSDDTAVYFCARGPPVIAAVSLEYWGRGTLVTVSS VL: EVVMTQSPLSLPVTLGQPASISCKSSQSLVHSNGDTYLNWFQQRPGQSPRRLIYKVSNRDSGVPDRFSGSGSGTDFTLKISRVETEDVGVYYCMQATHWPGSFGQGTKLEIK	0.176 µg/mL	–	–	0.126 µg/mL
hRSV139 (antibody, V domains shown, also called mAb hRSV139) VH: QVQLVQSGAEVKKPGASVKVSCKASGYVFSNYGISWVRQAPGQGLEWMGWISAYNGNTEFAQKFQGRITMTTDTSTNTAYLEVRGLRSDDTAVYYCSRQSGVSGVPEFQDWGQGTLVTVSS VL: QAVVTQSPLSLPVTLGQPASISCRSSQSLVYSNGDTYLSWFQQRPGQSPRRLIYKVSNRDSGVPDRFSASGSGTDFTLKISRVEAEDVGVYYCMQGTHWPPPTFGQGTRLEIK	0.323 µg/mL	no binding (tested: 1 μg ml^−1)	no binding (tested: 1 μg ml^−1)	–
hRSV90 (human mAb, IgG) (antibody, V domains shown, IgG1, kappa; also called mAb hRSV90) VH: EVQLVESGGGLVQPRRSLRLSCAASGFTFDDYTIHWVRQAPGKGLEWVSGITWNSGYIGYADSVKGRFTISRDNARNSLYLQMNSLRAEDTALYYCVRDAYVSGSDYYYYGLDVWGRGTLVTVSS VL: EIVMTSSPATLSVSPGERVTLFCRASQSVISNLAWYQQKSGQAPRLLIYGASTRATGIPSRFSGSGSGTEFTLTISSLQSEDFAVYFCQQYNNWPLTFGGGTQVNVQ	0.004 µg/mL	no binding (tested: 1 μg ml^−1)	no binding (tested: 1 μg ml^−1)	–
